Measurements: patent US20220125947A1 (published 2022)

T1: T cell receptor (TCR) Vγ9 (TRGV9) (human, UniProt Q99603 21-122)
T1 chain (looked up): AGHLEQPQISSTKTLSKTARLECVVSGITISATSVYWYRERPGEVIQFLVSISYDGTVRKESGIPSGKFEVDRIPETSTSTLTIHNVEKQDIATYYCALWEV


Target: T1, T cell receptor (TCR) Vγ9 (TRGV9)
Assay: cell-based or functional assay
For CD25+ (Vg9+ cells), flow staining in this document: test concentration or dose not given here.
For CD71+ (Vg9+ cells), flow staining in this document: test concentration or dose not given here.
For Granzyme B, Luminex (supernatant) in this document: unit not given here.
For IL6, Luminex (supernatant) in this document: unit not given here.
For TNFα, Luminex (supernatant) in this document: unit not given here.

Binder	CD25+ (Vg9+ cells), flow staining	CD71+ (Vg9+ cells), flow staining	Granzyme B, Luminex (supernatant)	IFNγ, Luminex (supernatant)	IL6, Luminex (supernatant)	TNFα, Luminex (supernatant)	Vg9 T cell %, flow staining
VG9B69 (antibody, human IgG1, kappa, V domains shown) VH: EVQLVESGGGLVKPGGSLRLSCAASGFTFSSYDINWVRQAPGKGLEWVSSITSSSYYIYYADSVKGRFTISRDNAKNSLYLQMNSLRAEDTAVYYCARDLGVRGVDYYYYGLDVWGQGTMVTVSS VL: not shown	40.4%	97.7%	3240	2070	591	1100	8.8%
VG9B73 (antibody, human IgG1, kappa, V domains shown) VH: EVQLVQSGGGLVKPGGSLRLSCAASGFTFSNYDMNWVRQAPGKGLEWVSSISSSSSYIYYADSVKGRFTISRDNARNSLFLQMSSLRAEDTAVYYCAREIGVTGTTYYQDYGMDVWGQGTTVTVSS VL: EIVMTQSPGTLSLSPGERATLSCRASQSFSSNYLAWYQQKPGQAPRLLIYGASSRATGIPDRFSGSGSGTDFTLTISRLEPEDFALYYCQQYGSSPPFTFGQGTKVEIKR	30.6%	94.1%	3370	1050	359	136	13.8%
VG9B98 (antibody, human IgG1, kappa, V domains shown) VH: EVQLVQSGGDLVKSGGSLRLSCAASGFTFSSYSMYWVRQAPGKGLEWVSSIGSSSTYIFYADSVKGRFTISRDNAMTSLYLQMNRLGAEDSAVYYCARDGELGPFEYWGQGTLVTVSS VL: EIVLTQSPGTLSLSPGERATLSCRASQSVSTSYLAWFQQKPGQAPRLLIFGTSSRATGIPDRFSGSGSGTDFTLTISRLEPEDFAVYHCLQYGRSPLTFGGGTKVDIKR	29.4%	90.5%	1420	305	294	2010	7.2%
VG9B133 (antibody, human IgG1, kappa, V domains shown) VH: EVQLVESGGGLVKPGGSLRLSCAAAGFTFSNYDMNWVRQVPGKGLEWVSSISSSSSYIYYADSVKGRFTISRDNAKNSLYLQMNTLRAEDTAVYYCARDLGITGTTMDYYYGMDVWGQGTMVTVSS VL: not shown	21.8%	91.4%	3480	1170	478	123	5.8%

Continued, values first:

CD25+ (Vg9+ cells), flow staining	CD71+ (Vg9+ cells), flow staining	Granzyme B, Luminex (supernatant)	IFNγ, Luminex (supernatant)	IL6, Luminex (supernatant)	TNFα, Luminex (supernatant)	Vg9 T cell %, flow staining	Binder
37.5%	96.2%	2520	1490	372	125	10.7%	VG9B430 (antibody, human IgG1, kappa, V domains shown) VH: EVQLLESGGGLVKPGGSLRLSCSASGFTFSSYDMNWVRQAPGKGLEWVSSISSSSSYIYYADSVKGRFTISRDNAKNSLYLQMNSLRAEDTAVYHCARDVGVTTDYYYYGMDVWGQGTMVTVSS VL: EIVLTQSPGTLSLSPGDRATLSCRASQSVASSYLAWYQQKPGQSPRLLIYGASSRATGIPDRFSGSGSGTDFTLTISRLEPEDFAVYYCQQYGSSPPYTFGQGTKLEIKR
37%	98.1%	4120	2000	613	390	5%	VG9B428 (antibody, human IgG1, kappa) heavy: not shown light: EIVMTQSPSSVSASVGDRVTITCRASQGINSWLAWYQQKPGNAPKLLIYAASSLQSGVPSRFSGIGSGTDFIFTISSLQPEDFASYYCQQANSFPWTFGQGTKVEIKRTVAAPSVFIFPPSDEQLKSGTASVVCLLNNFYPREAKVQWKVDNALQSGNSQESVTEQDSKDSTYSLSSTLTLSKADYEKHKVYACEVTHQGLSSPVTKSFNRGEC
